Holding throughout (settings): protein: recombinant; tags: N-term thioredoxin; C-term 6xHis; label: 5'-32P
Data set [1] deals with T1, 56ΔDYW-nad3L (Physcomitrella patens, UniProt A0A2K1IWP1 161-764, V188N;M289T;V390T;D420N;L491N;D521S;V592N;D623S).
T1 sequence: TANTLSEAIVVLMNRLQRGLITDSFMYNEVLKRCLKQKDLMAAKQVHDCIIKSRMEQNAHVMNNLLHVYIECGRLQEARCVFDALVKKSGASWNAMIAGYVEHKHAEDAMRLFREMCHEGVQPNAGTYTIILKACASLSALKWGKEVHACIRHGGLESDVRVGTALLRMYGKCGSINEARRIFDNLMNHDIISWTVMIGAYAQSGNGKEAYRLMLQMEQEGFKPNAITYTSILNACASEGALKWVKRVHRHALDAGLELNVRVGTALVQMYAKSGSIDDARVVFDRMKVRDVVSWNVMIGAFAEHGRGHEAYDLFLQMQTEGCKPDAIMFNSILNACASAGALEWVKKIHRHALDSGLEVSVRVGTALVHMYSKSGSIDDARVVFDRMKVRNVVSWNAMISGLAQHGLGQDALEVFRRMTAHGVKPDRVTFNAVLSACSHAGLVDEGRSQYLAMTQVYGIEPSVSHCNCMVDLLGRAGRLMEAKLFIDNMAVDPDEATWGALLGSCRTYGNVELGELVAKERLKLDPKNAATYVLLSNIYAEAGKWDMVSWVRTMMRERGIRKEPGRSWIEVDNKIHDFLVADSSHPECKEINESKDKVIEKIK
Briefly: EMSA; 100 nM protein; 40 mM Tris pH 8.0, 100 mM NaCl, 4 mM DTT, 0.1 mg/mL BSA, 10% glycerol, 25°C; protein 10 min, then 50 pM RNA 15 min; native 6% PAGE.

Data set [2] concerns the target T2, 56ΔDYW-13L[PD] (Physcomitrella patens, UniProt A0A2K1IWP1 161-764, V592P).
T2 sequence: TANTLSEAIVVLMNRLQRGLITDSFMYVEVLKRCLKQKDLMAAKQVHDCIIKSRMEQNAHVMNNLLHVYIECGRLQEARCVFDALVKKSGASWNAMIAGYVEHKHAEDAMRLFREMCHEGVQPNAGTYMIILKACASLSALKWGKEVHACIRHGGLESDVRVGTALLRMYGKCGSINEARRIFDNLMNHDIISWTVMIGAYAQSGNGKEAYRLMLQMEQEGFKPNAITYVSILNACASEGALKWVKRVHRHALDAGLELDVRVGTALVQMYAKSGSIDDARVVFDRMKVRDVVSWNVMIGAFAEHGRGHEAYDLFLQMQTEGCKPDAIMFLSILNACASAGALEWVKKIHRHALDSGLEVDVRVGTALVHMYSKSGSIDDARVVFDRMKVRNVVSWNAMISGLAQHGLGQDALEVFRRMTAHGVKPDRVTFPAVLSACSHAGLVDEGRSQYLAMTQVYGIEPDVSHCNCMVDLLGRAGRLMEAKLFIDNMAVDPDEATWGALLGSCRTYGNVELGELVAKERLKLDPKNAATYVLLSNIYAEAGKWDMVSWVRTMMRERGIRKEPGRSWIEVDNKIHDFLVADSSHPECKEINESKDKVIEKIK
The data set is described as above.

Data set [3] has as its target T3, 56ΔDYW-13L[ED] (Physcomitrella patens, UniProt A0A2K1IWP1 161-764, V592E).
T3 sequence: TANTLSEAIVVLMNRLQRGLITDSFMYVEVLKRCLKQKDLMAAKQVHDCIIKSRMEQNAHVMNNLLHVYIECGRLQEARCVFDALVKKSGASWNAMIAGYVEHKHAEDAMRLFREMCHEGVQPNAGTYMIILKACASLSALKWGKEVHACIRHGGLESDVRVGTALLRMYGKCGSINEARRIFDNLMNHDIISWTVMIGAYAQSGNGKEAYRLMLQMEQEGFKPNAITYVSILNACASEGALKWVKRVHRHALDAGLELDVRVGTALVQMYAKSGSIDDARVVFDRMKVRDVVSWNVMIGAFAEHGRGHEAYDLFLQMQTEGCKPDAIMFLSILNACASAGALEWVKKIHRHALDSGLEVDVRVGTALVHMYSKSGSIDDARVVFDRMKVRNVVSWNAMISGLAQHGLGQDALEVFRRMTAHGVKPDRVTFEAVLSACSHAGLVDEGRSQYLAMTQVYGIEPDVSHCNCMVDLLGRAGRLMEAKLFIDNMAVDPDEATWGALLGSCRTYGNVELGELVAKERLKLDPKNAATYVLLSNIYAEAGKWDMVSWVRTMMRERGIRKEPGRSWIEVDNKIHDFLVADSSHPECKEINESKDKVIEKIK
Described as above.

The target in data set [4] is T4, 56ΔDYW-wt (PpPPR_56 without transit peptide and DYW domain) (Physcomitrella patens, UniProt A0A2K1IWP1 161-764).
T4 sequence: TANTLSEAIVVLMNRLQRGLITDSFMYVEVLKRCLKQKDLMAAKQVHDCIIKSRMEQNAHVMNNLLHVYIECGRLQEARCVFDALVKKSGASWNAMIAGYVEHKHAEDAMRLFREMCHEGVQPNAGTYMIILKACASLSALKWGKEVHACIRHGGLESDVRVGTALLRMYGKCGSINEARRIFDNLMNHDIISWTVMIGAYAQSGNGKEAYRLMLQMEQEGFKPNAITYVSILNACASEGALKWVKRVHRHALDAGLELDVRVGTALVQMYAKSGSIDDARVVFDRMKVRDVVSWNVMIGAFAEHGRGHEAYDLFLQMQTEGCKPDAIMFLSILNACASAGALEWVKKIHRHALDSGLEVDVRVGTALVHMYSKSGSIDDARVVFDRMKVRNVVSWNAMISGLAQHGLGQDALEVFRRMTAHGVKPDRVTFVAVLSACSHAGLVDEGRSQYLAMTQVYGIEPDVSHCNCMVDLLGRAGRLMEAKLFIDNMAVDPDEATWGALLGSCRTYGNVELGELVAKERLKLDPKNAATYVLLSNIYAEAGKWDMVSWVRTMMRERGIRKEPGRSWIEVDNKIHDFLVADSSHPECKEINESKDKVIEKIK
Described as above.

Data set [5] concerns the target T4, 56ΔDYW-wt (PpPPR_56 without transit …). The data set is described as follows: EMSA; 0-100 nM protein, 50 pM RNA; better affinity than for nad3; 40 mM Tris pH 8.0, 100 mM NaCl, 4 mM DTT, 0.1 mg/mL BSA, 10% glycerol, 25°C; protein 10 min, then 50 pM RNA 15 min; native 6% PAGE.
For data set [6], the target named is T2, 56ΔDYW-13L[PD]. The data set is described as follows: EMSA; like wt; 40 mM Tris pH 8.0, 100 mM NaCl, 4 mM DTT, 0.1 mg/mL BSA, 10% glycerol, 25°C; protein 10 min, then 50 pM RNA 15 min; native 6% PAGE.
The target in data set [7] is T3, 56ΔDYW-13L[ED]. The data set is described as above.
The target of data set [8] is T1, 56ΔDYW-nad3L. The data set is described as follows: EMSA; no significant difference from wt; 40 mM Tris pH 8.0, 100 mM NaCl, 4 mM DTT, 0.1 mg/mL BSA, 10% glycerol, 25°C; protein 10 min, then 50 pM RNA 15 min; native 6% PAGE.
For data set [9], the target named is T4, 56ΔDYW-wt (PpPPR_56 without transit …). The data set is described as follows: EMSA; 0-100 nM protein, 50 pM RNA; lower affinity than for nad4; 40 mM Tris pH 8.0, 100 mM NaCl, 4 mM DTT, 0.1 mg/mL BSA, 10% glycerol, 25°C; protein 10 min, then 50 pM RNA 15 min; native 6% PAGE.

As to UUAUUUUUUUCGUUUCUCUUUUUGUUUUU (ssRNA) [PpPsbI-RNA1], the binding result in data set [1], in data set [2], in data set [3] and in [4] was “no binding” throughout.
As for AUUUUUAUAUAGGUAUAGACGGUAUCUCUUCAUUUU (ssRNA) [nad4-edit], the binding result in data set [5], in data set [6] and in [7] was “binds” throughout.
Consider UUAUUAUAUUUGAUUUGGAAGUCACCUUUUCAUUUC (ssRNA) [nad3-edit], for which the binding result in data set [8], in [9], in [6] and in data set [7] was “binds” in each case.

For the origin of these results see paper PMC7190159, “The L motifs of two moss pentatricopeptide repeat proteins are involved in RNA editing but predominantly not in RNA recognition”.
